Results on 15 molecules are retold here after US20210221874A1 (TRUSTEES OF TUFTS COLLEGE, published 2021).

The target of experiment [1] is T1, anthrax protective antigen, wild type PA83 (Bacillus anthracis, UniProt P13423 30-764).
T1 construct: mature
Briefly: SPR (Biacore 3000).

Experiment [2] has as its target T1, anthrax protective antigen, wild type …. The experiment can be described thus: dilution ELISA on PA-coated plates. For orientation: ELISA stands for enzyme-linked immunosorbent assay.
Experiment [3] shares this target. Briefly: SPR (ProteOn XPR36).
For experiment [4] the target is unchanged. Briefly: cell-based or functional assay.
Experiment [5] shares this target.
For experiment [6] the target is unchanged. Briefly: cell-based or functional assay. The source holds these as a separate data set.

T1 sequence (P13423 30-764): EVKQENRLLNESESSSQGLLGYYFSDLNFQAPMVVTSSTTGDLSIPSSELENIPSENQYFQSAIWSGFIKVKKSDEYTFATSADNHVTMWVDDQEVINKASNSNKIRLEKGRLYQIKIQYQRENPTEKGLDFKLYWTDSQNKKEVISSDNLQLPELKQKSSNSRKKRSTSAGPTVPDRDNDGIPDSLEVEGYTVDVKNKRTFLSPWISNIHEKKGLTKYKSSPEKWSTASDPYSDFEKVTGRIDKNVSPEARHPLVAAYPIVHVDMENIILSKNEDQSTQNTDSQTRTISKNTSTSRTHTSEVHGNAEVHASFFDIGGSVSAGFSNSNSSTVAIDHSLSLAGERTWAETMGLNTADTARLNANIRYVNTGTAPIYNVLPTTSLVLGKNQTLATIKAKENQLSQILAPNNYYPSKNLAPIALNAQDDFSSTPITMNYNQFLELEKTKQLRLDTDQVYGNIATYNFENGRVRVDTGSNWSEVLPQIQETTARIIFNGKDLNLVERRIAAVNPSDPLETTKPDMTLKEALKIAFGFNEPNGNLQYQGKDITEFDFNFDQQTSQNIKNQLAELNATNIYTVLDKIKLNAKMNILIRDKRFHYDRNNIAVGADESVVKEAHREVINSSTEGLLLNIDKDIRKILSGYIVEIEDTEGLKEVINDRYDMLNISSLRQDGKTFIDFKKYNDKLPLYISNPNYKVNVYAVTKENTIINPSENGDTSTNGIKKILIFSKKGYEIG

B1: JKO-B8 (VHH)
VHH: QLQLAESGGGLVQPGGSLRLSCTASGIIFDYYSVDWYRQAPGKERELVATITGDGSPNYADSVKGRFTISRDNAKKTVYLQMNGLKPEETAVYYCHAKRTIGTKSEYWGQGTQVTVSS
A word on the Kd: it is the constant that tells how readily two partners part at equilibrium. Low readings indicate tighter binding, high ones weaker binding. By EC50 is commonly meant the concentration needed to bring the measured effect to its halfway point. On to B1, for which the Kd in experiment [1] came to 200 nM. Besides, the EC50 in experiment [2] was over 100 nM.

B2: JHD-B6 (VHH)
VHH: QVQLVESGGGLVQPGGSLRLSCAASGSSFSRYAMRWYRQAPGKQRELVANINSRGTSNYADSVKGRFTISRDNAKNTVYLQMNSLKPEDTAVYYCNAEWLGRSEPSWGQGTQVTVSS
In the case of B2, the affinity in experiment [3], expressed as Kd, was 66 nM. In addition, the “IC50 (anthrax lethal toxin neutralization, RAW264.7 macrophages)” value in experiment [4] was determined as 10 nM. For the same molecule, a half-maximal effect in experiment [2] (EC50) was put at 0.5 nM.

B3: JIJ-E9 (VHH)
VHH: QVQLVETGGLVQPGGSLRLSCAASRSTTATIYSMNWYRQAPGKQRELVAGMTSDGQTNYATSVKGRFTISRDNAKNTVYLLMNSLKLEDTAVYYCYVKPWRLQGWDYWGQGTQVTVSS
As for B3, binding in experiment [3] was put at a Kd of 12 nM. Further, the “IC50 (anthrax lethal toxin neutralization, RAW264.7 macrophages)” value in experiment [4] is 30 nM. The molecule also showed an EC50 in experiment [2] of 0.4 nM.

B4: JKH-C7 (VHH)
VHH: VQLVESGGGGLVQAGGSLRLSCAASGRTFSGYAMGWFRQAPGKEREFVADISWSGHNTYYGDSVKGRFTISRDTAKNTVYLQMNSLKPEDTAVYYCAAEGARTHLSDSYYFPGLWAEPPVGYWGQGTQVTVSS
notes: also called JHK-C7
One may read the EC50 (read off the curve) as the concentration that produces a half-maximal response. High values mean a less potent agent, low ones a more potent agent. For the molecule B4, binding in experiment [1] was characterised by a dissociation constant (Kd) of 7 nM. In experiment [5], the concentration giving a half-maximal response (EC50 (read off the curve)) is about 2 nM. Further, the “IC50 (anthrax lethal toxin neutralization, RAW264.7 macrophages)” value in experiment [4] was found to be 5 nM. In experiment [2], the 50% effective concentration (EC50) is 2 nM. In addition, the “IC50 (read off the curve)” value in experiment [6] was about 4 nM.

B5: JKH-A4 (VHH)
VHH: QVQLAETGGGLVQAGGSLRLSCSASGLTFGNYAMGWFRQAPGKEREFVASISRSGSNTWYAEPLKGRFAISRDNDKNALYLQMNSLKPEDTAVYYCAGGSYNSDWWNYMYWGQGTQVTVSS
Take B5: the Kd in experiment [1] was 9 nM. The response in experiment [2] was half-maximal at 0.5 nM (EC50).

B6: JKO-H2 (VHH)
VHH: QVQLAESGGGLVQAGGSLRLSCAASGRTFSSYVMGWFRQAPGKEREFVAAISRNGGKTYYADSVKGRFTISRDGTENTVYLQMNSLKPEDTAVYYCAAAVAASAEFVTARSNFYEYWGQGTQVTVSS
notes: also called JKO-H12
Consider B6, for which the affinity in experiment [1], expressed as Kd, was 4 nM. Further, a half-maximal effect in experiment [2] (EC50) was put at 0.6 nM.

B7: JIJ-D3 (VHH)
VHH: QVQLVETGGLVQPGGSLRLSCAASGLTFSSTAMAWFRQAPGKEREFVARISGAGITIYYSDSVKDRFTISRNNVENTVYLQMNSLKTEDTAVYYCAARRNTYTSDYNIPARYPYWGQGTQVTVSS
B7 had a dissociation constant Kd in experiment [3] of 18 nM. In experiment [4], the “IC50 (anthrax lethal toxin neutralization, RAW264.7 macrophages)” value was determined as 9 nM. Also, the EC50 in experiment [2] worked out at 0.3 nM.

B8: JIK-B8 (VHH)
VHH: SGGGLVQPGGSLGLSCVVASERSINNYGMGWYRQAPGKQRELVAQISSGGTTNYADSVEGRFTISRDNVKKMVHLQVNSLKPEDTAVYYCNSLLRTFSWGQGTQVTVSS
With B8, binding in experiment [3] was put at a Kd of 0.13 nM. Further, the “IC50 (anthrax lethal toxin neutralization, RAW264.7 macrophages)” value in experiment [4] came to 1 nM. In addition, a half-maximal effect in experiment [2] (EC50) was put at 0.2 nM. Besides, the “IC50 (read off the curve)” value in experiment [6] was about 1 nM.

B9: JKO-E12 (VHH)
VHH: QVQLAETGGGLVQAGGSLRLSCLASRMSFSRRPMAWYRQAPGKQRERVATISSFGDTTNYTDSVEGRFTISRDNAKNTMYLQMNSLKPDDTAVYYCNTLLATYAWGQGTQVTVSS
Molecule B9 came in with a Kd in experiment [1] of 0.2 nM. For the same molecule, the “IC50 (anthrax lethal toxin neutralization, RAW264.7 macrophages)” value in experiment [4] is 0.2 nM. Besides, in experiment [2], a half-maximal effect (EC50) was put at 0.1 nM.

B10: JIJ-B8 (VHH)
VHH: SGGGLVQPGGSLSVSCAASGSIARPGAMAWYRQAPGKERELVASITPGGLTNYADSVTGRFTISRDNAKRTVYLQMNSLQPEDTAVYYCHARIIPLGLGSEYRDHWGQGTQVTVSS
B10 returned a dissociation constant Kd in experiment [3] of 8 nM. Further, the EC50 in experiment [2] is 0.4 nM.

B11: JIK-B10 (VHH)
VHH: QVQLVETGGGLVQPGGSLRLSCAASGFTFSSYRMSWYRQAAGKERDVVATITANGVPTGYADSVMGRFTISRDNAKNTVYLEMNSLNPEDTAVYYCNAPRLHTSVGYWGQGTQVTVSS
B11 showed a dissociation constant (Kd) in experiment [3] of 9 nM. Moreover, the “IC50 (anthrax lethal toxin neutralization, RAW264.7 macrophages)” value in experiment [4] turned out to be 8 nM. Also, the EC50 in experiment [2] was 0.2 nM.

B12: JIJ-A12 (VHH)
VHH: QVQLVESGGGLVQPGGSLRLSCAASGIIFSIYTMGWYRQAPGKQRELVAAIPSGPSANATDSVGGRFTITRDNAENTVYLQMNDLKPEDTAVYYCNARRGPGIKNYWGQGTQVTVSS
For B12, binding in experiment [3] was characterised by a dissociation constant (Kd) of 45 nM. Moreover, the midpoint of the response in experiment [2], the EC50, lay at 2 nM.

B13: JKM-A6 (VHH)
VHH: QLQLAETGGGLVQPGGSLRLSCAASGATLDTYIITWFRQAPGKEREAVSCINRSGSTTYSDSVKGRFTISRDNAQKTVYLQMNSLNPEDTAIYYCAADASYRTCGGSWWNWAYWGQGTQVTVSS
As for B13, the Kd in experiment [1] was found to be 20 nM. The response in experiment [2] was half-maximal at 0.3 nM (EC50).

B14: JKH-D12 (VHH)
VHH: QVQLVETGGGLVQAGGTLRLSCAASGRTFTSYYIGWFRQEPGKEREFVASIGWTDDNTYYADSVKGRFTISRDNAETTAYLQMSGLKPEDTAVYYCAADYGSGIRAWYNWIYWGQGTQVTVSS
In turn, B14 showed an equilibrium dissociation constant (Kd) in experiment [1] of 1 nM. In addition, the midpoint of the response in experiment [2], the EC50, lay at 0.3 nM.

B15: JKO-A4 (VHH)
VHH: QVQLAESGGGSVQPGGSLRLSCAASGFTFSSYTMSWVRQAPGKGIEWVSDINGGGDRTDYADSVKGRFTISRDNARNTLYLQMNSLQPEDTAVYYCAKDLSYVSGTYFANDWGQGTQVTVSS
On to B15, for which the equilibrium dissociation constant (Kd) in experiment [1] was 10 nM. Besides, the EC50 in experiment [2] came out at 0.3 nM.
